The target of test [1] is ^17–148Ump1-6His (S. cerevisiae) (UniProt P38293). Briefly: fluorescence microscopy-based on-bead binding assay; Ump1-6His or ^17–148Ump1-6His from E. coli extracts bound to Ni-NTA beads and washed (20 mM imidazole); extracts with mNeonGreen fusion proteins, adjusted by fluorescence, added 1 h, 4 °C; beads imaged, quantified with Fiji (n = 5), empty vector background subtracted.

Test [2] has as its target T1, β7-∆CTE (β7 without C-terminal extension), untagged (S. cerevisiae, UniProt P30657 1-247).
T1 construct: β7/Pre4, S. cerevisiae, C-terminal extension (CTE, the last 19 residues) deleted; propeptide present; source: E. coli, purified
T1 sequence (looked up): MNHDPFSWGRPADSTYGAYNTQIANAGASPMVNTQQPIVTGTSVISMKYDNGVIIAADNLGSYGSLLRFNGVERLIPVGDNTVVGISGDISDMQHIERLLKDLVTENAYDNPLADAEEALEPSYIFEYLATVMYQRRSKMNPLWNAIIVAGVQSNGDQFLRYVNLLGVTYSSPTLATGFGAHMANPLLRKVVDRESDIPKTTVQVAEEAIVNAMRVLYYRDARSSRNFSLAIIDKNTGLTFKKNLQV
Briefly: pull-down; native extracts of E. coli expressing Ump1-6His incubated with Ni-NTA resin, washed, then incubated with purified untagged β7 versions; elution with imidazole, anti-β7 and anti-Ump1 Western blotting, LI-COR quantification (n = 3). The settings on record: both partners purified.

In test [1], “full-length β7 (^1–266β7) fused to mNeonGreen and 2HA (from UniProt P30657 1-266) (natural protein)” displayed a reduction in binding efficiency against full-length Ump1 of 50%.

B1: full-length Ump1-6His (natural protein, S. cerevisiae, UniProt P38293 1-148, looked up)
chain: MNIVPQDTFKSQVSTDQDKSVLSSAVPSLPDTLRQQEGGAVPLSTQLNDRHPLESTLKNWETTQRQRQMEQYRQIFGIAEPMKRTMEMEIVNRTDFNPLSTNGSIHRDILLNKECSIDWEDVYPGTGLQASTMVGDDVHSKIEKQLGI
notes: source: E. coli; not shown: 6His, C-terminal, kept
Consider B1, for which the binding result in test [2] is “binds”.

The values are drawn from article PMC8961534, “Interaction with the Assembly Chaperone Ump1 Promotes Incorporation of the β7 Subunit into Half-Proteasome Precursor Complexes Driving Their Dimerization” (Biomolecules, 2022).
